Patent US11135246B2, “Peptides and combination of peptides for use in immunotherapy against leukemias and other cancers” (Immatics Biotechnologies GmbH, priority 2017, dated 2021)

Biological target: HLA-A*02:01 (Homo sapiens, UniProt P04439, D140Y/D185E/D98H/E176V/E277Q/G131W/G231S/I119V/I121R/I166T/I218V/L300P/L318F/N151K/N90K/P208A/P217A/Q86G/Q94H/R138H/R169H/T345S)
Assay: MHC binding assay, UV-ligand exchange with β2m ELISA, HLA-A*02:01
Conditions: peptide exchange yield
Source text: (§1) Candidate peptides for T cell based therapies according to the present invention were further tested for their MHC binding capacity (affinity). The individual peptide-MHC complexes were produced by UV-ligand exchange, where a UV-sensitive peptide is cleaved upon UV-irradiation, and exchanged with the peptide of interest as analyzed. Only peptide candidates that can effectively bind and stabilize the peptide-receptive MHC molecules prevent dissociation of the MHC complexes. To determine the yield of the exchange reaction, an ELISA was performed based on the detection of the light chain (β2m) of stabilized MHC complexes. The assay was performed as generally described in Rodenko et al. (Rodenko et al., 2006).
(§2) 96 well MAXISorp plates (NUNC) were coated over night with 2 ug/ml streptavidin in PBS at room temperature, washed 4× and blocked for 1 h at 37° C. in 2% BSA containing blocking buffer. Refolded HLA-A*02:01/MLA-001 monomers served as standards, covering the range of 15-500 ng/ml. Peptide-MHC monomers of the UV-exchange reaction were diluted 100-fold in blocking buffer. Samples were incubated for 1 h at 37° C., washed four times, incubated with 2 ug/ml HRP conjugated anti-β2m for 1 h at 37° C., washed again and detected with TMB solution that is stopped with […]. Absorption was measured at 450 nm. Candidate peptides that show a high exchange yield (preferably higher than 50%, most preferred higher than 75%) are generally preferred for a generation and production of antibodies or fragments thereof, and/or T cell receptors or fragments thereof, as they show sufficient avidity to the MHC molecules and prevent dissociation of the MHC complexes.

| Peptide exchange | Substance |
| --- | --- |
| “++++” (>75% = ++++) | 197 (SLADVHIEV; listed as Homo sapiens) [compound 197] |
| “+++” (>50 = +++) | 198 (KLLGYDVHV; listed as Homo sapiens) [compound 198] |
| “++++” (>75% = ++++) | 199 (AMPDSPAEV; listed as Homo sapiens) [compound 199] |
| “+++” (>50 = +++) | 200 (VMLQINPKL; listed as Homo sapiens) [compound 200] |
| “+++” (>50 = +++) | 201 (ILAAVETRL; listed as Homo sapiens) [compound 201] |
| “++++” (>75% = ++++) | 203 (FLLPKVQSI; listed as Homo sapiens) [compound 203] |
| “+++” (>50 = +++) | 204 (FLLPKVQSIQL; listed as Homo sapiens) [compound 204] |
| “++++” (>75% = ++++) | 205 (FLINTNSEL; listed as Homo sapiens) [compound 205] |
| “+++” (>50 = +++) | 206 (SLMDLQERL; listed as Homo sapiens) [compound 206] |
| “++++” (>75% = ++++) | 207 (KLSDNILKL; listed as Homo sapiens) [compound 207] |

Continued, substance first:

| Substance | Peptide exchange |
| --- | --- |
| 17 (KAYNRVIFV; listed as Homo sapiens) [compound 17] | “+++” (>50 = +++) |
| 18 (YLLPSVVLL; listed as Homo sapiens) [compound 18] | “++++” (>75% = ++++) |
| 19 (SLFEGIYTI; listed as Homo sapiens) [compound 19] | “++++” (>75% = ++++) |
| 20 (FSLEDLVRI; listed as Homo sapiens) [compound 20] | “++” (>20% = ++) |
| 21 (FLFDKLLLI; listed as Homo sapiens) [compound 21] | “++++” (>75% = ++++) |
| 22 (ILHAQTLKI; listed as Homo sapiens) [compound 22] | “+++” (>50 = +++) |
| 23 (FAFSGVLRA; listed as Homo sapiens) [compound 23] | “++” (>20% = ++) |
| 24 (KLGPVAVSI; listed as Homo sapiens) [compound 24] | “++++” (>75% = ++++) |
| 25 (YLNEKSLQL; listed as Homo sapiens) [compound 25] | “++++” (>75% = ++++) |
| 26 (SLYVQQLKI; listed as Homo sapiens) [compound 26] | “++++” (>75% = ++++) |
| 27 (RLIAKEMNI; listed as Homo sapiens) [compound 27] | “++++” (>75% = ++++) |

Biological target: HLA-A*03:01 (Homo sapiens, UniProt P04439)
Assay: MHC binding assay, UV-ligand exchange with β2m ELISA, HLA-A*03:01
Conditions: peptide exchange yield
Source text: as §1, §2

| Peptide exchange | Substance |
| --- | --- |
| “++” (>20% = ++) | 208 (KLNPQQAPLY; listed as Homo sapiens) [compound 208] |
| “++” (>20% = ++) | 209 (KTLPAMLGTGK; listed as Homo sapiens) [compound 209] |
| “+++” (>50 = +++) | 210 (RMYSQLKTLQK; listed as Homo sapiens) [compound 210] |
| “+++” (>50 = +++) | 211 (ATYNKQPMYR; listed as Homo sapiens) [compound 211] |
| “+” (>10% = +) | 212 (LLWHWDTTQSLK; listed as Homo sapiens) [compound 212] |
| “++” (>20% = ++) | 213 (RVYNIYIRR; listed as Homo sapiens) [compound 213] |
| “+++” (>50 = +++) | 214 (ATGAATPKK; listed as Homo sapiens) [compound 214] |
| “++” (>20% = ++) | 215 (KATGAATPK; listed as Homo sapiens) [compound 215] |
| “++” (>20% = ++) | 216 (RIKAPSRNTIQK; listed as Homo sapiens) [compound 216] |
| “++” (>20% = ++) | 217 (TTVPHVFSK; listed as Homo sapiens) [compound 217] |
| “++” (>20% = ++) | 218 (RVLTGVFTK; listed as Homo sapiens) [compound 218] |
| “+++” (>50 = +++) | 219 (HSYSSPSTK; listed as Homo sapiens) [compound 219] |
| “++” (>20% = ++) | 220 (SISNLVFTY; listed as Homo sapiens) [compound 220] |
| “+++” (>50 = +++) | 221 (LLNRHILAH; listed as Homo sapiens) [compound 221] |

More lines, now with the values behind:

| Substance | Peptide exchange |
| --- | --- |
| 47 (SVLDLSVHK; listed as Homo sapiens) [compound 47] | “++” (>20% = ++) |
| 48 (RIKPPGPTAVPK; listed as Homo sapiens) [compound 48] | “+++” (>50 = +++) |
| 49 (GLLEEALFY; listed as Homo sapiens) [compound 49] | “++” (>20% = ++) |
| 51 (ASTTVLALK; listed as Homo sapiens) [compound 51] | “++” (>20% = ++) |
| 52 (KAFNQSSTLTK; listed as Homo sapiens) [compound 52] | “+++” (>50 = +++) |

Biological target: HLA-A*01:01 (Homo sapiens, UniProt P04439, A114D/A174V/A182V/D101N/D185E/E176A/E190D/L180R/Q94H/R68K/S129P/T187R/V100A/V91M/W191G)
Assay: MHC binding assay, UV-ligand exchange with β2m ELISA, HLA-A*01:01
Conditions: peptide exchange yield
Source text: as §1, §2

| Peptide exchange | Substance |
| --- | --- |
| “++++” (>75% = ++++) | 195 (YSDKEFAGSY; listed as Homo sapiens) [compound 195] |
| “+++” (>50 =+++) | 196 (FTDIDGQVY; listed as Homo sapiens) [compound 196] |

More lines, now with the values behind:

| Substance | Peptide exchange |
| --- | --- |
| 1 (LTEGHSGNYY; listed as Homo sapiens) [compound 1] | “++++” (>75% = ++++) |
| 3 (YINPAKLTPY; listed as Homo sapiens) [compound 3] | “++” (>20% = ++) |
| 4 (ALDQNKMHY; listed as Homo sapiens) [compound 4] | “+++” (>50 =+++) |
| 5 (GTDVLSTRY; listed as Homo sapiens) [compound 5] | “+++” (>50 =+++) |
| 6 (VTEGVAQTSFY; listed as Homo sapiens) [compound 6] | “++++” (>75% = ++++) |
| 7 (FMDSESFYY; listed as Homo sapiens) [compound 7] | “+” (>10% = +) |
| 8 (STDSAGSSY; listed as Homo sapiens) [compound 8] | “++++” (>75% = ++++) |
| 9 (YSHPQYSSY; listed as Homo sapiens) [compound 9] | “++” (>20% = ++) |
| 10 (YSDIGHLL; listed as Homo sapiens) [compound 10] | “++” (>20% = ++) |
| 11 (AAADHHSLY; listed as Homo sapiens) [compound 11] | “+++” (>50 =+++) |
| 12 (ATDIVDSQY; listed as Homo sapiens) [compound 12] | “+++” (>50 =+++) |
| 13 (ITDIHIKY; listed as Homo sapiens) [compound 13] | “++++” (>75% = ++++) |
| 14 (TFDLTVVSY; listed as Homo sapiens) [compound 14] | “++” (>20% = ++) |
| 15 (SVADIRNAY; listed as Homo sapiens) [compound 15] | “++” (>20% = ++) |
| 16 (WIGDKSFEY; listed as Homo sapiens) [compound 16] | “++” (>20% = ++) |
| 188 (YVDAGTPMY; listed as Homo sapiens) [compound 188] | “+++” (>50 =+++) |
| 189 (VTEEPQRLFY; listed as Homo sapiens) [compound 189] | “++++” (>75% = ++++) |
| 190 (HVDQDLTTY; listed as Homo sapiens) [compound 190] | “++” (>20% = ++) |
| 191 (ISEAGKDLLY; listed as Homo sapiens) [compound 191] | “+++” (>50 =+++) |
| 192 (RSDPGGGGLAY; listed as Homo sapiens) [compound 192] | “+++” (>50 =+++) |
| 193 (LTDSEKGNSY; listed as Homo sapiens) [compound 193] | “+++” (>50 =+++) |
| 194 (YTDKKSIIY; listed as Homo sapiens) [compound 194] | “+++” (>50 =+++) |

Biological target: HLA-A*24:02 (Homo sapiens, UniProt P04439, D101N/D140Y/D185E/E176V/E190D/F33S/G103R/G107R/I119L/I121M/I306V/K335N/L105A/L180Q/L300P/N151K/N90K/Q86E/Q94H/R106L/R138H/R89G/T104I/T345S/V100E/W191G/Y123F)
Assay: MHC binding assay, UV-ligand exchange with β2m ELISA, HLA-A*24:02
Conditions: peptide exchange yield
Source text: as §1, §2

| Peptide exchange | Substance |
| --- | --- |
| “++++” (>75% = ++++) | 53 (KYIEYYLVL; listed as Homo sapiens) [compound 53] |
| “++++” (>75% = ++++) | 55 (IFVARLYYF; listed as Homo sapiens) [compound 55] |
| “+++” (>50 = +++) | 56 (KYSSGFRNI; listed as Homo sapiens) [compound 56] |
